We go through 1 substance from article PMC6738421.

For test [1], the target named is Arginyl-tRNA-protein transferase Ate1, isoform Ate1-1 (mouse) (UniProt Q9Z2A5).
Test [2] has as its target Arginyl-tRNA-protein transferase Ate1, isoform Ate1-3 (mouse) (UniProt Q9Z2A5).

Sequence of BSA (P02769 25-607): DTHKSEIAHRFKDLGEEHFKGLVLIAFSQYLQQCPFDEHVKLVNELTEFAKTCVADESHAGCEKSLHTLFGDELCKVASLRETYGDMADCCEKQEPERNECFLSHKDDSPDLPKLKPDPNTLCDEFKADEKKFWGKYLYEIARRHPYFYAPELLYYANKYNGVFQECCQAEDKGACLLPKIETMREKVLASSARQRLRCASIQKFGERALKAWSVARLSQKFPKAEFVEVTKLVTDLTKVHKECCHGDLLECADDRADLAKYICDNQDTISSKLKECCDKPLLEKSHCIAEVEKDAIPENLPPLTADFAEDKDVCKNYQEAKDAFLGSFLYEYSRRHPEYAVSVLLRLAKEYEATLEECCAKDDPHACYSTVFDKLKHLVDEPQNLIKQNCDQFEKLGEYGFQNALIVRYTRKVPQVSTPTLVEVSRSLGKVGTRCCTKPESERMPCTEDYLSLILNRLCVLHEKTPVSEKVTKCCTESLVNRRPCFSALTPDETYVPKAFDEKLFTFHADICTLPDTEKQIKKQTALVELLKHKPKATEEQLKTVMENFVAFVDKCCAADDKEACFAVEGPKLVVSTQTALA
Sequence of Arginyl-tRNA-protein transferase Ate1, isoform Ate1-3 (mouse) (Q9Z2A5 other isoform, or with tags, fused parts or gaps): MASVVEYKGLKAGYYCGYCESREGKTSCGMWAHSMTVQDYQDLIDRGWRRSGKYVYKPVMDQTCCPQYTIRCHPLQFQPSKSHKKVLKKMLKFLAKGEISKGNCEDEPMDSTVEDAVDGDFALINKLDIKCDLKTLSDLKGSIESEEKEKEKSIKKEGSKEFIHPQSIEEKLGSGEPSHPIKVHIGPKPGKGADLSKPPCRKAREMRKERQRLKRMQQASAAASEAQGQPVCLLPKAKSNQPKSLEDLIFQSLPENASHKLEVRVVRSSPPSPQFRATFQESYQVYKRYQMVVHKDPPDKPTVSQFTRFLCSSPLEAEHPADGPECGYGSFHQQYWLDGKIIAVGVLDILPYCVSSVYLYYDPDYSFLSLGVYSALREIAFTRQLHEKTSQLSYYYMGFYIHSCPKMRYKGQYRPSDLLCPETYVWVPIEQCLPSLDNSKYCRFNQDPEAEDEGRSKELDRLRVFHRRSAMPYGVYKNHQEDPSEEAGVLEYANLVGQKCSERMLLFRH
Sequence of Arginyl-tRNA-protein transferase Ate1, isoform Ate1-1 (mouse) (Q9Z2A5 whole entry, canonical isoform): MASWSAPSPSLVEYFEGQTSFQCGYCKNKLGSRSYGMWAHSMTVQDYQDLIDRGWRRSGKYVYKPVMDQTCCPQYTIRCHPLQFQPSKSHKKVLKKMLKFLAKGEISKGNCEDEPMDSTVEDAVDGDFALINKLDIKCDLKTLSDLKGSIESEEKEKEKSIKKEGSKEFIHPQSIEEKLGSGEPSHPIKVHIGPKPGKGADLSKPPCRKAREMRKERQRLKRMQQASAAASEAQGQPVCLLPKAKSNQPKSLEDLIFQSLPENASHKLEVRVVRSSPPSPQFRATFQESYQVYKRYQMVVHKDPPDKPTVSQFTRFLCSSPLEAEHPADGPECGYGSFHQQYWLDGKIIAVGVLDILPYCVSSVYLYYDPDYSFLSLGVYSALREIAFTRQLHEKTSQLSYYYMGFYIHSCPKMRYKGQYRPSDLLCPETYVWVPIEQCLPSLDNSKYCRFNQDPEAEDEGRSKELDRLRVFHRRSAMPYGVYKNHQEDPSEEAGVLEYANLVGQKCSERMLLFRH

For “BSA (from UniProt P02769 25-607) (natural protein)”, the Km of arginylation of the substrate by Ate1-1 (enzyme kinetics by ITC) in test [1] was 33.2 µM. Also, the Km of arginylation of the substrate by Ate1-3 (enzyme kinetics by ITC) in test [2] was found to be 52.5 µM.
